Data taken from the supplement of paper PMC7125110.
± gives the standard error. This sample holds only a part of the variants without activity.

B1: glmS ribozyme (parent)
chain: AUAAAAGCGCCAGAACUACAGAAAUGUAGUUGACGAGGAGGAGGUUUAUCGAAUUUUCGGCGGAUGCCUCCAAA

Experiments:
Conditions in all cases: with glucosamine-6-phosphate
glucosamine-6-phosphate [1] = variants of: B1; assay: self-cleavage kobs at 40 uM GlcN6P; higher = faster cleavage; RNA array
Procedure, shortened: (§1)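 Tiles of sequenced MiSeq chips were imaged over ~14 h at 37 °C. On them, barcoded ribozyme variants had been transcribed in situ by E. coli RNA polymerase and were tracked via a hybridised Cy3 probe while glucosamine-6-phosphate (40 μM to 10 mM) in HEPES/KCl/Mg(OAc)2 buffer flowed in. Per-tile medians, normalised to baseline and to non-cleaving reference variants, were fit to one- or two-exponential decays for kobs, and weighted Michaelis–Menten fits gave kcat and KM.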

glucosamine-6-phosphate [2] = variants of: B1; assay: self-cleavage kobs at 160 uM GlcN6P; higher = faster cleavage; RNA array
Procedure, shortened: as §1

glucosamine-6-phosphate [3] = variants of: B1; assay: self-cleavage kobs at 640 uM GlcN6P; higher = faster cleavage; RNA array
Procedure, shortened: as §1

glucosamine-6-phosphate [4] = variants of: B1; assay: self-cleavage kobs at 2500 uM GlcN6P; higher = faster cleavage; RNA array
Procedure, shortened: as §1

glucosamine-6-phosphate [5] = variants of: B1; assay: self-cleavage kobs at 10000 uM GlcN6P; higher = faster cleavage; RNA array
Procedure, shortened: as §1

Row | Variant | self-cleavage kobs at 40 uM GlcN6P (glucosamine-6-phosphate [1]) [s⁻¹] | self-cleavage kobs at 160 uM GlcN6P (glucosamine-6-phosphate [2]) [s⁻¹] | self-cleavage kobs at 640 uM GlcN6P (glucosamine-6-phosphate [3]) [s⁻¹] | self-cleavage kobs at 2500 uM GlcN6P (glucosamine-6-phosphate [4]) [s⁻¹] | self-cleavage kobs at 10000 uM GlcN6P (glucosamine-6-phosphate [5]) [s⁻¹]
1 | A14C A48G U69C | < 1e-05 | – | – | – | –
2 | A14G U47G | 0.00069 ± 9.9e-05 | 0.00132 ± 0.0004 | 0.00356 ± 0.00073 | 0.0139 ± 0.0037 | 0.0324 ± 0.0073
3 | A14U G43A U49A C58U | < 1e-05 | – | – | – | < 1e-05
4 | G13C G43U | < 1e-05 | – | < 1e-05 | < 1e-05 | < 1e-05
5 | G13C A48U C70G | < 1e-05 | – | – | – | < 1e-05
6 | A15G G35U | < 1e-05 | < 1e-05 | – | < 1e-05 | < 1e-05
7 | A14G C16U | 0.00189 ± 0.00023 | 0.0032 ± 0.0007 | 0.00488 ± 0.00082 | 0.00522 ± 0.0012 | 0.0726 ± 0.02
8 | A14U C50G C67U | 0.00027 ± 6.3e-05 | 0.000222 ± 7e-05 | 0.000192 ± 5.6e-05 | 0.000193 ± 5.8e-05 | 0.000112 ± 1.9e-05
9 | A15G A64G | 0.000819 ± 0.00013 | 0.00196 ± 0.00048 | 0.0063 ± 0.0012 | 0.00698 ± 0.0018 | 0.0604 ± 0.017
10 | G13U G29U A36U U57G | < 1e-05 | – | – | – | < 1e-05
11 | A15G A36G G44U | < 1e-05 | – | – | < 1e-05 | –
12 | A14U C70U | 0.000285 ± 2.5e-05 | 0.000441 ± 6.1e-05 | 0.00104 ± 0.00018 | 0.00724 ± 0.0015 | –
13 | A14U U56C | 5.38e-05 ± 1.8e-05 | – | 0.000234 ± 4.8e-05 | 0.000307 ± 7.6e-05 | 0.00138 ± 0.00027
14 | A14G A39U G44A | 0.000196 ± 4.6e-05 | – | – | – | 0.00841 ± 0.0018
15 | A14G A53G C58U U65C C71U | < 1e-05 | – | – | – | –
16 | A15C A52C C70U C71G | < 1e-05 | – | – | – | –
17 | A14G A39U U56C | 0.000144 ± 2.6e-05 | – | – | – | 0.00921 ± 0.0012
18 | A14C U30G C50A G60U G63U | < 1e-05 | – | – | – | < 1e-05
19 | A14U G37U | < 1e-05 | – | < 1e-05 | – | < 1e-05
20 | A14G A39G | 0.004 ± 0.00057 | 0.00304 ± 0.00096 | 0.0236 ± 0.0054 | – | 0.138 ± 0.052
21 | A14G G40A | 0.000801 ± 0.00011 | 0.00119 ± 0.00039 | 0.0045 ± 0.00098 | 0.00484 ± 0.0011 | 0.0666 ± 0.029
22 | A15C A33C A64U | < 1e-05 | – | – | – | < 1e-05

Row | Variant | self-cleavage kobs at 40 uM GlcN6P (glucosamine-6-phosphate [1]) [s⁻¹] | self-cleavage kobs at 160 uM GlcN6P (glucosamine-6-phosphate [2]) [s⁻¹] | self-cleavage kobs at 640 uM GlcN6P (glucosamine-6-phosphate [3]) [s⁻¹] | self-cleavage kobs at 2500 uM GlcN6P (glucosamine-6-phosphate [4]) [s⁻¹] | self-cleavage kobs at 10000 uM GlcN6P (glucosamine-6-phosphate [5]) [s⁻¹]
23 | A15G C71G | 0.000107 ± 1.2e-05 | 0.000256 ± 4.1e-05 | 0.00066 ± 8.8e-05 | 0.00214 ± 0.00045 | –
24 | A15G C71A | 0.000251 ± 5.9e-05 | 0.00102 ± 0.00025 | 0.00108 ± 0.00025 | 0.006 ± 0.0015 | 0.005 ± 0.0016
25 | A14U G40A U56G | 0.000117 ± 2.9e-05 | – | – | – | 0.00163 ± 0.00045
26 | A14G A36U G43U | < 1e-05 | – | – | – | < 1e-05
27 | G13C U31G A48U | < 1e-05 | – | – | – | –
28 | A14U A15G G43C | < 1e-05 | – | < 1e-05 | < 1e-05 | –
29 | A14U A33G G38U C71A | < 1e-05 | – | – | – | –
30 | A15C G35U C50U | < 1e-05 | – | – | < 1e-05 | < 1e-05
31 | A14U G40A G51U | < 1e-05 | – | – | – | –
32 | G13A U47A G60U | < 1e-05 | < 1e-05 | < 1e-05 | – | < 1e-05
33 | A12U U45C | 0.000226 ± 3.6e-05 | – | – | 0.00428 ± 0.0016 | 0.00628 ± 0.001
34 | A14G C16U G41U | 0.000207 ± 7.3e-05 | – | – | – | 0.00243 ± 0.00096
35 | A14C G43U | < 1e-05 | < 1e-05 | < 1e-05 | < 1e-05 | –
36 | A14G U69A | 0.000118 ± 2.8e-05 | 0.000124 ± 2.5e-05 | 0.000315 ± 9.3e-05 | 0.000142 ± 2.2e-05 | 0.000397 ± 9.9e-05
37 | G13U G59C | < 1e-05 | – | < 1e-05 | – | < 1e-05
38 | A14G U55C A64C | < 1e-05 | – | – | – | –
39 | A15G G62U | < 1e-05 | – | – | – | < 1e-05
40 | A15C A52U A53G U56C | < 1e-05 | – | – | – | < 1e-05
41 | A15G G41A | 0.000137 ± 1.9e-05 | 0.000239 ± 4.1e-05 | 0.000767 ± 0.00025 | 0.0013 ± 0.00038 | 0.00309 ± 0.00072
42 | G13U A33U G44C | < 1e-05 | – | – | – | –
43 | A14G G40A A53U | 0.000596 ± 0.00013 | – | – | – | 0.0182 ± 0.004
44 | A15C C50G G62U | 4.56e-05 ± 2.2e-05 | – | 6.39e-05 ± 2.8e-05 | 0.000111 ± 3.3e-05 | –
